Data reported in patent US20240317868A1 (Boehringer Ingelheim, published 2024).
Positions count from the first letter of the chain named. Names and notes keep the numbering of the source. Each block holds one binder with its values, some of them ahead of it.

Columns and labels:
human IL1RAP [1] = biological target: T1, human IL1RAP (human, UniProt Q9NPH3 21-367, limits assumed, biotinylated in the ELISA screens (site not stated)); test: ELISA of point mutant IgG (heavy chain mutant with the parental chimeric light chain, CHO-E expression), one bar each, concentration not given
T1 construct: also called huIL1RAP; IL1RAP antigen
T1 sequence (looked up): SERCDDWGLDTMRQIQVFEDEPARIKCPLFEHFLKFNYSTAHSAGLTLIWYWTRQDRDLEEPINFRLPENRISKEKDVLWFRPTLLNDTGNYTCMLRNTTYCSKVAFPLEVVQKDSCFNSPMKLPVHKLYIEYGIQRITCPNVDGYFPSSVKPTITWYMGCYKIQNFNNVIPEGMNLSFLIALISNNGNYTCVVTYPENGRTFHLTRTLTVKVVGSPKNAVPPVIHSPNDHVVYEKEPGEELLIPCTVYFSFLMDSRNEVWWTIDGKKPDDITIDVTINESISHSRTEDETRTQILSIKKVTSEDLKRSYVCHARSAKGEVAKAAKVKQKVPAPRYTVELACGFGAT
Source text: (§1) For light chain 13 variants (T25A, E27Q, N28S, N30S, Y50A, K52S, T53Y, A55Q, E56S, H90Q, H91S, G93S and S95P) and 19 heavy chain variants (Y27G, I28T, L30S, T31S, W33Y, M34I, N35S, Q50R, F521, A541, S55L, D56G, S57I, T58A, N61A, E62Q, M63K, K65Q and D66G) were generated separately in the vector pTT5 (See FIG. 3A/B). The light chain mutants were paired with the parental chimeric heavy chain and heavy chain mutants were paired with parental chimeric light chain for expression analysis in CHO-E cells for 7 days. The resulting variants were evaluated for binding in ELISA experiments and compared to the parental chimeric IgG which has mouse variable region but human constant regions. For light chain variants, six point mutants VK-T25A, E27Q, N28S, N30S, K52S and T53Y depicted binding similar to chimeric IgG (+10% control; FIG. 3A) while for heavy chain […] point mutants VH-I28T, L30S, M34I, N35S, D56G, T58A, N61A, E62Q, M63K, K65Q and D66G depicted similar binding as chimeric IgG (+10% control; FIG. 3B).

human IL1RAP [2] = biological target: T1, human IL1RAP; test: ELISA of point mutant IgG (light chain mutant with the parental chimeric heavy chain, CHO-E expression), one bar each, concentration not given
Source text: as §1

[3] = biological target: human IL1RAP on cells (human) (UniProt Q9NPH3); test: cell-based or functional assay

binding result (human IL1RAP [1]): binds
B1: GO11 chimeric IgG, heavy chain point mutant VH-D56G (antibody, V domains shown)
VH: QVHLQQSGPELVRPGTSVKISCEASGYIFLTYWMNWVKQRPGQGLEWIGQIFPASGSTYYNEMFKDKARFTVDKSSSTAYMQFSSLTSEDTAVYFCARSGPYSYYAGGYALDYWGQGTSVTVSS
VL: DIQMTQSPASLSASVGETVTITCRTSENINSYLAWYQQKQGKSPQLLVHYAKTLAEGVPSRFSGSGSGTQFSLKINSLKPEDFGSYYCQHHYGTSLTFGAGTKLELK
notes: Heavy chain mutant paired with the parental chimeric light chain; IgG backbone, expressed in CHO-E

binding result (human IL1RAP [1]): binds
B2: VH-Y27G (antibody, V domains shown)
VH: B1 VH with Y27G, G56D
VL: DIQMTQSPASLSASVGETVTITCRTSENINSYLAWYQQKQGKSPQLLVHYAKTLAEGVPSRFSGSGSGTQFSLKINSLKPEDFGSYYCQHHYGTSLTFGAGTKLELKR
notes: germlining point mutant, paired with the parental chimeric light chain; also called GO11 chimeric IgG, heavy chain point mutant Y27G; copies: 2 + 2

binding result (human IL1RAP [2]): binds
B3: VK-Y50A (antibody, V domains shown)
VH: B1 VH with G56D
VL: B2 VL with Y50A
notes: germlining point mutant, paired with the parental chimeric heavy chain; also called GO11 chimeric IgG, light chain point mutant Y50A; copies: 2 + 2

binding result (human IL1RAP [1]): binds
B4: GO11 chimeric IgG, heavy chain point mutant VH-N35S (antibody, V domains shown)
VH: B1 VH with N35S, G56D
VL: B1 VL
notes: as for B1

binding result (human IL1RAP [1]): binds
B5: GO11 chimeric IgG, heavy chain point mutant VH-T58A (antibody, V domains shown)
VH: B1 VH with G56D, T58A
VL: B1 VL
notes: as for B1

binding result (human IL1RAP [1]): binds
B6: GO11 chimeric IgG, heavy chain point mutant VH-M63K (antibody, V domains shown)
VH: B1 VH with G56D, M63K
VL: B1 VL
notes: as for B1

binding result (human IL1RAP [1]): no binding
B7: VH-S55L (antibody, V domains shown)
VH: B1 VH with S55L, G56D
VL: B2 VL
notes: germlining point mutant, paired with the parental chimeric light chain; also called GO11 chimeric IgG, heavy chain point mutant S55L; copies: 2 + 2

binding result (human IL1RAP [2]): binds
B8: GO11 chimeric IgG, light chain point mutant VK-E27Q (antibody, V domains shown)
VH: B1 VH with G56D
VL: B1 VL with E27Q
notes: Light chain mutant paired with the parental chimeric heavy chain; IgG backbone, expressed in CHO-E

binding result (human IL1RAP [1]): binds
B9: GO11 chimeric IgG, heavy chain point mutant VH-M34I (antibody, V domains shown)
VH: B1 VH with M34I, G56D
VL: B1 VL
notes: as for B1

binding result (human IL1RAP [2]): binds
B10: VK-E56S (antibody, V domains shown)
VH: B1 VH with G56D
VL: B2 VL with E56S
notes: germlining point mutant, paired with the parental chimeric heavy chain; also called GO11 chimeric IgG, light chain point mutant E56S; copies: 2 + 2

binding result (human IL1RAP [1]): binds
B11: GO11 chimeric IgG, heavy chain point mutant VH-D66G (antibody, V domains shown)
VH: B1 VH with G56D, D66G
VL: B1 VL
notes: as for B1

binding result (human IL1RAP [1]): binds
B12: VH-Q50R (antibody, V domains shown)
VH: B1 VH with Q50R, G56D
VL: B2 VL
notes: germlining point mutant, paired with the parental chimeric light chain; also called GO11 chimeric IgG, heavy chain point mutant Q50R; copies: 2 + 2

binding result (human IL1RAP [2]): binds
B13: GO11 chimeric IgG, light chain point mutant VK-K52S (antibody, V domains shown)
VH: B1 VH with G56D
VL: B1 VL with K52S
notes: as for B8

binding result (human IL1RAP [1]): binds
B14: GO11 chimeric IgG, heavy chain point mutant VH-E62Q (antibody, V domains shown)
VH: B1 VH with G56D, E62Q
VL: B1 VL
notes: as for B1

binding result (human IL1RAP [2]): binds
B15: VK-A55Q (antibody, V domains shown)
VH: B1 VH with G56D
VL: B2 VL with A55Q
notes: germlining point mutant, paired with the parental chimeric heavy chain; also called GO11 chimeric IgG, light chain point mutant A55Q; copies: 2 + 2

binding result (human IL1RAP [1]): binds
B16: VH-W33Y (antibody, V domains shown)
VH: B1 VH with W33Y, G56D
VL: B2 VL
notes: germlining point mutant, paired with the parental chimeric light chain; also called GO11 chimeric IgG, heavy chain point mutant W33Y; copies: 2 + 2

binding result (human IL1RAP [2]): binds
B17: VK-H90Q (antibody, V domains shown)
VH: B1 VH with G56D
VL: B2 VL with H90Q
notes: germlining point mutant, paired with the parental chimeric heavy chain; also called GO11 chimeric IgG, light chain point mutant H90Q; copies: 2 + 2

binding result (human IL1RAP [1]): binds
B18: VH-S57I (antibody, V domains shown)
VH: B1 VH with G56D, S57I
VL: B2 VL
notes: germlining point mutant, paired with the parental chimeric light chain; also called GO11 chimeric IgG, heavy chain point mutant S57I; copies: 2 + 2

binding result (human IL1RAP [2]): binds
B19: GO11 chimeric IgG, light chain point mutant VK-N28S (antibody, V domains shown)
VH: B1 VH with G56D
VL: B1 VL with N28S
notes: as for B8

binding result (human IL1RAP [1]): binds
B20: GO11 chimeric IgG, heavy chain point mutant VH-K65Q (antibody, V domains shown)
VH: B1 VH with G56D, K65Q
VL: B1 VL
notes: as for B1

binding result (human IL1RAP [1]): binds
B21: GO11 chimeric IgG, heavy chain point mutant VH-N61A (antibody, V domains shown)
VH: B1 VH with G56D, N61A
VL: B1 VL
notes: as for B1

binding result (human IL1RAP [2]): binds
B22: GO11 chimeric IgG, light chain point mutant VK-N30S (antibody, V domains shown)
VH: B1 VH with G56D
VL: B1 VL with N30S
notes: as for B8

binding result (human IL1RAP [2]): binds
B23: VK-G93S (antibody, V domains shown)
VH: B1 VH with G56D
VL: B2 VL with G93S
notes: germlining point mutant, paired with the parental chimeric heavy chain; also called GO11 chimeric IgG, light chain point mutant G93S; copies: 2 + 2

binding result (human IL1RAP [1]): binds
B24: GO11 chimeric IgG, heavy chain point mutant VH-I28T (antibody, V domains shown)
VH: B1 VH with I28T, G56D
VL: B1 VL
notes: as for B1

binding result (human IL1RAP [1]): binds
B25: VH-F52I (antibody, V domains shown)
VH: B1 VH with F52I, G56D
VL: B2 VL
notes: germlining point mutant, paired with the parental chimeric light chain; also called GO11 chimeric IgG, heavy chain point mutant F52I; copies: 2 + 2

binding result (human IL1RAP [1]): binds
B26: GO11 chimeric IgG, heavy chain point mutant VH-L30S (antibody, V domains shown)
VH: B1 VH with L30S, G56D
VL: B1 VL
notes: as for B1

binding result (human IL1RAP [2]): binds
B27: GO11 chimeric IgG, light chain point mutant VK-T25A (antibody, V domains shown)
VH: B1 VH with G56D
VL: B1 VL with T25A
notes: as for B8

IC90 IFN-gamma release (WB), IL-33 [3]: > 1000 nM
IC90 IL-8 release (NCI-H292), IL1-B [3]: > 1000 nM
IC90 IL-8 release (NCI-H292), IL-1A [3]: > 1000 nM
IC90 IL-8 release (NCI-H292), IL-33 [3]: 46 nM
IC90 IL-8 release (NCI-H292), IL-36G [3]: > 1000 nM
IC90 MIP-1B release (WB), IL1-B [3]: 125 nM
IC90 MIP-1B release (WB), IL-1A [3]: > 1000 nM
IC90 MIP-1B release (WB), IL-36G [3]: 43 nM
IC90 Nf-KB activation (HEK-Blue), IL1-B [3]: 56 nM
IC90 Nf-KB activation (HEK-Blue), IL-1A [3]: > 1000 nM
IC90 Nf-KB activation (HEK-Blue), IL-33 [3]: > 1000 nM
IC90 Nf-KB activation (HEK-Blue), IL-36G [3]: > 1000 nM
B28: CAN04 (antibody, INN chains, looked up, V domains shown)
VH: QVQLVQSGAEVKKPGSSVKVSCKASGYAFTSSWMNWVRQAPGQGLEWMGRIYPGDGNTHYAQKFQGRVTLTADKSTSTAYMELSSLRSEDTAVYYCGEGYLDPMDYWGQGTLVTVSS
VL: DIQMTQSPSSLSASVGDRVTITCQASQGINNYLNWYQQKPGKAPKLLIHYTSGLHAGVPSRFSGSGSGTDYTLTISSLEPEDVATYYCQQYSILPWTFGGGTKVEIK
